Test results taken from patent US20050032681A1 (TEMPLE UNIV OF THE COMMONWEALTH SYSTEM OF HIGHER EDUCATION …, published 2005).

T1: human neutrophil elastase (human, UniProt P08246 30-247, limits assumed)
T1 sequence (looked up): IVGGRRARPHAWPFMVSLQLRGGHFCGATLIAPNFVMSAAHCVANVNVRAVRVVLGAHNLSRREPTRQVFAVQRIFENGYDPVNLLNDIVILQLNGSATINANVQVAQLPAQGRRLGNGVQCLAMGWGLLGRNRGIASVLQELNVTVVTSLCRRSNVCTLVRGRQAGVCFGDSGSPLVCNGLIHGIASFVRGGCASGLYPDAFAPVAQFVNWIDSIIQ

B1: 5EA modified ATIII (on human ATIII.N135A background) (other)
chain: HGSPVDICTAKPRDIPMNPMCIYRSPEKKATEDEGSEQKIPEATNRRVWELSKANSRFATTFYQHLADSKNDNDNIFLSPLSISTAFAMTKLGACNDTLQQLMEVFKFDTISEKTSDQIHFFFAKLNCRLYRKAAKSSKLVSANRLFGDKSLTFNETYQDISELVYGAKLQPLDFKENAEQSRAAINKWVSNKTEGRITDVIPSEAINELTVLVLVNTIYFKGLWKSKFSPENTRKELFYKADGESCSASMMYQEGKFRYRRVAEGTQVLELPFKGDDITMVLILPKPEKSLAKVEKELTPEVLQEWLDELEEMMLVVHMPRFRIEDGFSLKEQLQDMGLVDLFSPEKSKLPGIVAEGRDDLYVSDAFHKAFLEVNEEGSEAAASTAVEAAGRSLNPNRVTFKANRPFLVFIREVPLNTIIFMGRVANPCVK
notes: Recombinant, baculovirus/Sf9, N135A background; also called AT.5EA
B2: Bb.D modified ATIII (on human ATIII.N135A background) (other)
chain: HGSPVDICTAKPRDIPMNPMCIYRSPEKKATEDEGSEQKIPEATNRRVWELSKANSRFATTFYQHLADSKNDNDNIFLSPLSISTAFAMTKLGACNDTLQQLMEVFKFDTISEKTSDQIHFFFAKLNCRLYRKAAKSSKLVSANRLFGDKSLTFNETYQDISELVYGAKLQPLDFKENAEQSRAAINKWVSNKTEGRITDVIPSEAINELTVLVLVNTIYFKGLWKSKFSPENTRKELFYKADGESCSASMMYQEGKFRYRRVAEGTQVLELPFKGDDITMVLILPKPEKSLAKVEKELTPEVLQEWLDELEEMMLVVHMPRFRIEDGFSLKEQLQDMGLVDLFSPEKSKLPGIVAEGRDDLYVSDAFHKAFLEVNEEGSEAAASEEGEGSGRSLNPNRVTFKANRPFLVFIREVPLNTIIFMGRVANPCVK
notes: Recombinant, baculovirus/Sf9, N135A background; also called AT.Bb.D
B3: 13 A modified ATIII (on human ATIII.N135A background) (other)
chain: HGSPVDICTAKPRDIPMNPMCIYRSPEKKATEDEGSEQKIPEATNRRVWELSKANSRFATTFYQHLADSKNDNDNIFLSPLSISTAFAMTKLGACNDTLQQLMEVFKFDTISEKTSDQIHFFFAKLNCRLYRKAAKSSKLVSANRLFGDKSLTFNETYQDISELVYGAKLQPLDFKENAEQSRAAINKWVSNKTEGRITDVIPSEAINELTVLVLVNTIYFKGLWKSKFSPENTRKELFYKADGESCSASMMYQEGKFRYRRVAEGTQVLELPFKGDDITMVLILPKPEKSLAKVEKELTPEVLQEWLDELEEMMLVVHMPRFRIEDGFSLKEQLQDMGLVDLFSPEKSKLPGIVAEGRDDLYVSDAFHKAFLEVNEEGSEAAASTAVEGAGRSLNPNRVTFKANRPFLVFIREVPLNTIIFMGRVANPCVK
notes: Recombinant, baculovirus/Sf9, N135A background; also called AT.13.A
B4: 7EVEA modified ATIII (on human ATIII.N135A background) (other)
chain: HGSPVDICTAKPRDIPMNPMCIYRSPEKKATEDEGSEQKIPEATNRRVWELSKANSRFATTFYQHLADSKNDNDNIFLSPLSISTAFAMTKLGACNDTLQQLMEVFKFDTISEKTSDQIHFFFAKLNCRLYRKAAKSSKLVSANRLFGDKSLTFNETYQDISELVYGAKLQPLDFKENAEQSRAAINKWVSNKTEGRITDVIPSEAINELTVLVLVNTIYFKGLWKSKFSPENTRKELFYKADGESCSASMMYQEGKFRYRRVAEGTQVLELPFKGDDITMVLILPKPEKSLAKVEKELTPEVLQEWLDELEEMMLVVHMPRFRIEDGFSLKEQLQDMGLVDLFSPEKSKLPGIVAEGRDDLYVSDAFHKAFLEVNEEGSEAAASTEVEAAGRSLNPNRVTFKANRPFLVFIREVPLNTIIFMGRVANPCVK
notes: Recombinant, baculovirus/Sf9, N135A background; also called AT.7EVEA
B5: 13.B modified ATIII (on human ATIII.N135A background) (other)
chain: HGSPVDICTAKPRDIPMNPMCIYRSPEKKATEDEGSEQKIPEATNRRVWELSKANSRFATTFYQHLADSKNDNDNIFLSPLSISTAFAMTKLGACNDTLQQLMEVFKFDTISEKTSDQIHFFFAKLNCRLYRKAAKSSKLVSANRLFGDKSLTFNETYQDISELVYGAKLQPLDFKENAEQSRAAINKWVSNKTEGRITDVIPSEAINELTVLVLVNTIYFKGLWKSKFSPENTRKELFYKADGESCSASMMYQEGKFRYRRVAEGTQVLELPFKGDDITMVLILPKPEKSLAKVEKELTPEVLQEWLDELEEMMLVVHMPRFRIEDGFSLKEQLQDMGLVDLFSPEKSKLPGIVAEGRDDLYVSDAFHKAFLEVNEEGSEAAASTEVEGAGRSLNPNRVTFKANRPFLVFIREVPLNTIIFMGRVANPCVK
notes: Recombinant, baculovirus/Sf9, N135A background; also called AT.13.B
B6: 13.C modified ATIII (on human ATIII.N135A background) (other)
chain: HGSPVDICTAKPRDIPMNPMCIYRSPEKKATEDEGSEQKIPEATNRRVWELSKANSRFATTFYQHLADSKNDNDNIFLSPLSISTAFAMTKLGACNDTLQQLMEVFKFDTISEKTSDQIHFFFAKLNCRLYRKAAKSSKLVSANRLFGDKSLTFNETYQDISELVYGAKLQPLDFKENAEQSRAAINKWVSNKTEGRITDVIPSEAINELTVLVLVNTIYFKGLWKSKFSPENTRKELFYKADGESCSASMMYQEGKFRYRRVAEGTQVLELPFKGDDITMVLILPKPEKSLAKVEKELTPEVLQEWLDELEEMMLVVHMPRFRIEDGFSLKEQLQDMGLVDLFSPEKSKLPGIVAEGRDDLYVSDAFHKAFLEVNEEGSEAAASTELEGAGRSLNPNRVTFKANRPFLVFIREVPLNTIIFMGRVANPCVK
notes: Recombinant, baculovirus/Sf9, N135A background; also called AT.13.C
B7: 13.D modified ATIII (on human ATIII.N135A background) (other)
chain: HGSPVDICTAKPRDIPMNPMCIYRSPEKKATEDEGSEQKIPEATNRRVWELSKANSRFATTFYQHLADSKNDNDNIFLSPLSISTAFAMTKLGACNDTLQQLMEVFKFDTISEKTSDQIHFFFAKLNCRLYRKAAKSSKLVSANRLFGDKSLTFNETYQDISELVYGAKLQPLDFKENAEQSRAAINKWVSNKTEGRITDVIPSEAINELTVLVLVNTIYFKGLWKSKFSPENTRKELFYKADGESCSASMMYQEGKFRYRRVAEGTQVLELPFKGDDITMVLILPKPEKSLAKVEKELTPEVLQEWLDELEEMMLVVHMPRFRIEDGFSLKEQLQDMGLVDLFSPEKSKLPGIVAEGRDDLYVSDAFHKAFLEVNEEGSEAAASTALEGAGRSLNPNRVTFKANRPFLVFIREVPLNTIIFMGRVANPCVK
notes: Recombinant, baculovirus/Sf9, N135A background; also called AT.13.D
B8: Aa modified ATIII (on human ATIII.N135A background) (other)
chain: HGSPVDICTAKPRDIPMNPMCIYRSPEKKATEDEGSEQKIPEATNRRVWELSKANSRFATTFYQHLADSKNDNDNIFLSPLSISTAFAMTKLGACNDTLQQLMEVFKFDTISEKTSDQIHFFFAKLNCRLYRKAAKSSKLVSANRLFGDKSLTFNETYQDISELVYGAKLQPLDFKENAEQSRAAINKWVSNKTEGRITDVIPSEAINELTVLVLVNTIYFKGLWKSKFSPENTRKELFYKADGESCSASMMYQEGKFRYRRVAEGTQVLELPFKGDDITMVLILPKPEKSLAKVEKELTPEVLQEWLDELEEMMLVVHMPRFRIEDGFSLKEQLQDMGLVDLFSPEKSKLPGIVAEGRDDLYVSDAFHKAFLEVNEEGSEAAASTAEGGGGRSLNPNRVTFKANRPFLVFIREVPLNTIIFMGRVANPCVK
notes: Recombinant, baculovirus/Sf9, N135A background; also called AT.Aa
B9: F2A′ modified ATIII (on human ATIII.N135A background) (other)
chain: HGSPVDICTAKPRDIPMNPMCIYRSPEKKATEDEGSEQKIPEATNRRVWELSKANSRFATTFYQHLADSKNDNDNIFLSPLSISTAFAMTKLGACNDTLQQLMEVFKFDTISEKTSDQIHFFFAKLNCRLYRKAAKSSKLVSANRLFGDKSLTFNETYQDISELVYGAKLQPLDFKENAEQSRAAINKWVSNKTEGRITDVIPSEAINELTVLVLVNTIYFKGLWKSKFSPENTRKELFYKADGESCSASMMYQEGKFRYRRVAEGTQVLELPFKGDDITMVLILPKPEKSLAKVEKELTPEVLQEWLDELEEMMLVVHMPRFRIEDGFSLKEQLQDMGLVDLFSPEKSKLPGIVAEGRDDLYVSDAFHKAFLEVNEEGSEAAASTQTPPNGRSLNPNRVTFKANRPFLVFIREVPLNTIIFMGRVANPCVK
B10: Bb.C modified ATIII (on human ATIII.N135A background) (other)
chain: HGSPVDICTAKPRDIPMNPMCIYRSPEKKATEDEGSEQKIPEATNRRVWELSKANSRFATTFYQHLADSKNDNDNIFLSPLSISTAFAMTKLGACNDTLQQLMEVFKFDTISEKTSDQIHFFFAKLNCRLYRKAAKSSKLVSANRLFGDKSLTFNETYQDISELVYGAKLQPLDFKENAEQSRAAINKWVSNKTEGRITDVIPSEAINELTVLVLVNTIYFKGLWKSKFSPENTRKELFYKADGESCSASMMYQEGKFRYRRVAEGTQVLELPFKGDDITMVLILPKPEKSLAKVEKELTPEVLQEWLDELEEMMLVVHMPRFRIEDGFSLKEQLQDMGLVDLFSPEKSKLPGIVAEGRDDLYVSDAFHKAFLEVNEEGSEAAASEEGEASGRSLNPNRVTFKANRPFLVFIREVPLNTIIFMGRVANPCVK
modifications: Sf9-expressed glycoprotein: N-glycans expected at Asn 96, 155 and 192 (written N); Asn135 site removed by N135A.

How the values were obtained:
[1] = target: T1, human neutrophil elastase; assay: cell-based or functional assay
human factor Xa = target: T2, human factor Xa (human, UniProt P00742 41-179; P00742 235-488, limits assumed); assay: pseudo-first-order factor Xa inhibition kinetics, residual activity with S-2765, 25 C, polybrene
T2 construct: that the active enzyme has two chains is from general knowledge
Procedure: (§1) Forty μL aliquots of ATIII samples at varying concentrations (450 nM, 300 nM, 150 nM) in PNE-PEG plus 50 μL polybrene (to neutralize any contaminating heparin) were preloaded into quadruplicate wells of a low-binding 96-well assay plate (Corning). The plate was maintained at 25° C., and 20 μL aliquots of 30 nM human thrombin or 15 nM human factor Xa were added to each of the four wells at successive 5 minute intervals. Reactions were quenched 5 minutes after addition of enzyme to the last of the wells by the adding 100 μL of 1.5 mM chromogenic substrate (S-2238 for thrombin; S-2765 for factor Xa). Residual enzyme activity was measured on a BioTek ELS11X kinetic plate reader controlled by a Macintosh SE with Deltasoft software. Initial rates of chromogenic substrate cleavage were monitored at 405 nm.

human α-thrombin = human α-thrombin (human, UniProt P00734 328-363; P00734 364-622); assay: pseudo-first-order thrombin inhibition kinetics, residual activity with S-2238, 25 C, polybrene
Procedure: as §1

T2 sequence (P00742 41-179 limits assumed, chain 1 of 2): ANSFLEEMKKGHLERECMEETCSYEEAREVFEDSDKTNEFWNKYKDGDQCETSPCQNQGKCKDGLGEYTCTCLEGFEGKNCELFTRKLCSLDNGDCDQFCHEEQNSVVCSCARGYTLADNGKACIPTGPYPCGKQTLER
T2 sequence (P00742 235-488 limits assumed, chain 2 of 2): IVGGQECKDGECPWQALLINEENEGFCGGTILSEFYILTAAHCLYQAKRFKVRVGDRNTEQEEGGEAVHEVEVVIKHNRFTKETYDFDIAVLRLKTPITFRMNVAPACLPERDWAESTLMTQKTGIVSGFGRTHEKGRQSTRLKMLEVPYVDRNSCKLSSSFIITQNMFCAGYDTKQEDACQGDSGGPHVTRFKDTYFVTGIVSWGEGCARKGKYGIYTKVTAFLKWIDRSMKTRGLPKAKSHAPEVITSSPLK

Binder	HNE resistance T1/2, min [1] [min]	kapp (apparent second-order rate constant of association) (human factor Xa) [M⁻¹ s⁻¹]	kapp (apparent second-order rate constant of association) (human α-thrombin) [M⁻¹ s⁻¹]
B1	3.2	3100	600
B2	> 45		100
B3	2.1	500	200
B4	5.6	4800	600
B5	7.6	2800	
B6	10.1	5100	
B7	2.6	3300	
B8	9.1	400	400
B9	2.6		
B10	437		
